Measured values as given in patent US12679878B2, “CRF2 receptor agonists and their use in therapy” (SANOFI, priority 2020, dated 2026).
Starred links: 1 amine or outer side, 2 acyl side, 3 side chain; linkers in the order of their positions; H or OH if unused. Non-standard residues stand in square brackets, D forms with d. Groups on a side chain read outwards from the residue. No end group written: not given here. *: point of attachment. C18 diacid = O=C(O)CCCCCCCCCCCCCCCCC(=O)*; γGlu = O=C(O)[C@H](CCC(=O)[*:2])N[*:1]; Palmitoyl = CCCCCCCCCCCCCCCC(=O)*; AEEA = NCCOCCOCC(=O)O; Aib = CC(C)(N)C(=O)O

T1: anti-target CRF1R receptor (UniProt P34998 24-415, limits assumed)
T1 sequence (looked up): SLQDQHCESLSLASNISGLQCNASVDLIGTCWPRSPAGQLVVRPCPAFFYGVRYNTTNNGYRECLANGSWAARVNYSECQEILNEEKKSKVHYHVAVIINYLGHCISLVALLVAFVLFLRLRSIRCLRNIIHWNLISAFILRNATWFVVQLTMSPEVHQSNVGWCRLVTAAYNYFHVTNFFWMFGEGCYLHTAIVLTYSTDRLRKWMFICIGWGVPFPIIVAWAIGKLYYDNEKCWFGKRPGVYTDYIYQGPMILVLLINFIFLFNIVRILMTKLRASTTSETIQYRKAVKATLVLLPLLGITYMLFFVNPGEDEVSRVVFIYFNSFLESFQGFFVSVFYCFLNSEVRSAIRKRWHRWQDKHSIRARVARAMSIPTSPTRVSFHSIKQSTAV

B1: peptide of SEQ ID NO: 11 (peptide)
peptide: FTLSLDVPTKIK([γGlu-Palmitoyl])QKLLKQEKQKKQRQKAKTNAQILAQV-NH2
modifications: N-terminus assumed
SMILES: CCCCCCCCCCCCCCCC(=O)N[C@@H](CCC(=O)NCCCC[C@H](NC(=O)[C@@H](NC(=O)[C@H](CCCCN)NC(=O)[C@@H](NC(=O)[C@@H]1CCCN1C(=O)[C@@H](NC(=O)[C@H](CC(=O)O)NC(=O)[C@H](CC(C)C)NC(=O)[C@H](CO)NC(=O)[C@H](CC(C)C)NC(=O)[C@@H](NC(=O)[C@@H](N)Cc1ccccc1)[C@@H](C)O)C(C)C)[C@@H](C)O)[C@@H](C)CC)C(=O)N[C@@H](CCC(N)=O)C(=O)N[C@@H](CCCCN)C(=O)N[C@@H](CC(C)C)C(=O)N[C@@H](CC(C)C)C(=O)N[C@@H](CCCCN)C(=O)N[C@@H](CCC(N)=O)C(=O)N[C@@H](CCC(=O)O)C(=O)N[C@@H](CCCCN)C(=O)N[C@@H](CCC(N)=O)C(=O)N[C@@H](CCCCN)C(=O)N[C@@H](CCCCN)C(=O)N[C@@H](CCC(N)=O)C(=O)N[C@@H](CCCNC(=N)N)C(=O)N[C@@H](CCC(N)=O)C(=O)N[C@@H](CCCCN)C(=O)N[C@@H](C)C(=O)N[C@@H](CCCCN)C(=O)N[C@H](C(=O)N[C@@H](CC(N)=O)C(=O)N[C@@H](C)C(=O)N[C@@H](CCC(N)=O)C(=O)N[C@H](C(=O)N[C@@H](CC(C)C)C(=O)N[C@@H](C)C(=O)N[C@@H](CCC(N)=O)C(=O)N[C@H](C(N)=O)C(C)C)[C@@H](C)CC)[C@@H](C)O)C(=O)O
B2: peptide of SEQ ID NO: 184 (peptide)
peptide: IVLSLD[dV]PIKLK(C18 diacid)QILLKQERQKKQRQQAEKNKQILAQV-NH2
modifications: N-terminus assumed
SMILES: CC[C@H](C)[C@H](N)C(=O)N[C@H](C(=O)N[C@@H](CC(C)C)C(=O)N[C@@H](CO)C(=O)N[C@@H](CC(C)C)C(=O)N[C@@H](CC(=O)O)C(=O)N[C@@H](C(=O)N1CCC[C@H]1C(=O)N[C@H](C(=O)N[C@@H](CCCCN)C(=O)N[C@@H](CC(C)C)C(=O)N[C@@H](CCCCNC(=O)CCCCCCCCCCCCCCCCC(=O)O)C(=O)N[C@@H](CCC(N)=O)C(=O)N[C@H](C(=O)N[C@@H](CC(C)C)C(=O)N[C@@H](CC(C)C)C(=O)N[C@@H](CCCCN)C(=O)N[C@@H](CCC(N)=O)C(=O)N[C@@H](CCC(=O)O)C(=O)N[C@@H](CCCNC(=N)N)C(=O)N[C@@H](CCC(N)=O)C(=O)N[C@@H](CCCCN)C(=O)N[C@@H](CCCCN)C(=O)N[C@@H](CCC(N)=O)C(=O)N[C@@H](CCCNC(=N)N)C(=O)N[C@@H](CCC(N)=O)C(=O)N[C@@H](CCC(N)=O)C(=O)N[C@@H](C)C(=O)N[C@@H](CCC(=O)O)C(=O)N[C@@H](CCCCN)C(=O)N[C@@H](CC(N)=O)C(=O)N[C@@H](CCCCN)C(=O)N[C@@H](CCC(N)=O)C(=O)N[C@H](C(=O)N[C@@H](CC(C)C)C(=O)N[C@@H](C)C(=O)N[C@@H](CCC(N)=O)C(=O)N[C@H](C(N)=O)C(C)C)[C@@H](C)CC)[C@@H](C)CC)[C@@H](C)CC)C(C)C)C(C)C
B3: peptide of SEQ ID NO: 226 (peptide)
peptide: IVLSLD[dV]PIGLK([γGlu-Palmitoyl])QKLLKQQRQRKERQQAEKNKRILERV-NH2
modifications: N-terminus assumed
SMILES: CCCCCCCCCCCCCCCC(=O)N[C@@H](CCC(=O)NCCCC[C@H](NC(=O)[C@H](CC(C)C)NC(=O)CNC(=O)[C@@H](NC(=O)[C@@H]1CCCN1C(=O)[C@H](NC(=O)[C@H](CC(=O)O)NC(=O)[C@H](CC(C)C)NC(=O)[C@H](CO)NC(=O)[C@H](CC(C)C)NC(=O)[C@@H](NC(=O)[C@@H](N)[C@@H](C)CC)C(C)C)C(C)C)[C@@H](C)CC)C(=O)N[C@@H](CCC(N)=O)C(=O)N[C@@H](CCCCN)C(=O)N[C@@H](CC(C)C)C(=O)N[C@@H](CC(C)C)C(=O)N[C@@H](CCCCN)C(=O)N[C@@H](CCC(N)=O)C(=O)N[C@@H](CCC(N)=O)C(=O)N[C@@H](CCCNC(=N)N)C(=O)N[C@@H](CCC(N)=O)C(=O)N[C@@H](CCCNC(=N)N)C(=O)N[C@@H](CCCCN)C(=O)N[C@@H](CCC(=O)O)C(=O)N[C@@H](CCCNC(=N)N)C(=O)N[C@@H](CCC(N)=O)C(=O)N[C@@H](CCC(N)=O)C(=O)N[C@@H](C)C(=O)N[C@@H](CCC(=O)O)C(=O)N[C@@H](CCCCN)C(=O)N[C@@H](CC(N)=O)C(=O)N[C@@H](CCCCN)C(=O)N[C@@H](CCCNC(=N)N)C(=O)N[C@H](C(=O)N[C@@H](CC(C)C)C(=O)N[C@@H](CCC(=O)O)C(=O)N[C@@H](CCCNC(=N)N)C(=O)N[C@H](C(N)=O)C(C)C)[C@@H](C)CC)C(=O)O
B4: peptide of SEQ ID NO: 227 (peptide)
peptide: IVLSLD[dV]PIKLK([γGlu-Palmitoyl])QKLLKQQRQRKERQQAEKNKRILERV-NH2
modifications: N-terminus assumed
SMILES: CCCCCCCCCCCCCCCC(=O)N[C@@H](CCC(=O)NCCCC[C@H](NC(=O)[C@H](CC(C)C)NC(=O)[C@H](CCCCN)NC(=O)[C@@H](NC(=O)[C@@H]1CCCN1C(=O)[C@H](NC(=O)[C@H](CC(=O)O)NC(=O)[C@H](CC(C)C)NC(=O)[C@H](CO)NC(=O)[C@H](CC(C)C)NC(=O)[C@@H](NC(=O)[C@@H](N)[C@@H](C)CC)C(C)C)C(C)C)[C@@H](C)CC)C(=O)N[C@@H](CCC(N)=O)C(=O)N[C@@H](CCCCN)C(=O)N[C@@H](CC(C)C)C(=O)N[C@@H](CC(C)C)C(=O)N[C@@H](CCCCN)C(=O)N[C@@H](CCC(N)=O)C(=O)N[C@@H](CCC(N)=O)C(=O)N[C@@H](CCCNC(=N)N)C(=O)N[C@@H](CCC(N)=O)C(=O)N[C@@H](CCCNC(=N)N)C(=O)N[C@@H](CCCCN)C(=O)N[C@@H](CCC(=O)O)C(=O)N[C@@H](CCCNC(=N)N)C(=O)N[C@@H](CCC(N)=O)C(=O)N[C@@H](CCC(N)=O)C(=O)N[C@@H](C)C(=O)N[C@@H](CCC(=O)O)C(=O)N[C@@H](CCCCN)C(=O)N[C@@H](CC(N)=O)C(=O)N[C@@H](CCCCN)C(=O)N[C@@H](CCCNC(=N)N)C(=O)N[C@H](C(=O)N[C@@H](CC(C)C)C(=O)N[C@@H](CCC(=O)O)C(=O)N[C@@H](CCCNC(=N)N)C(=O)N[C@H](C(N)=O)C(C)C)[C@@H](C)CC)C(=O)O
B5: peptide of SEQ ID NO: 13 (peptide)
peptide: FTLSLDVPTKIK([AEEA-AEEA-γGlu-C18 diacid])QILFKQQKQKKERQQAEKNKQLLEQI-NH2
modifications: N-terminus assumed
SMILES: CC[C@H](C)[C@H](NC(=O)[C@H](CCC(N)=O)NC(=O)[C@H](CCC(=O)O)NC(=O)[C@H](CC(C)C)NC(=O)[C@H](CC(C)C)NC(=O)[C@H](CCC(N)=O)NC(=O)[C@H](CCCCN)NC(=O)[C@H](CC(N)=O)NC(=O)[C@H](CCCCN)NC(=O)[C@H](CCC(=O)O)NC(=O)[C@H](C)NC(=O)[C@H](CCC(N)=O)NC(=O)[C@H](CCC(N)=O)NC(=O)[C@H](CCCNC(=N)N)NC(=O)[C@H](CCC(=O)O)NC(=O)[C@H](CCCCN)NC(=O)[C@H](CCCCN)NC(=O)[C@H](CCC(N)=O)NC(=O)[C@H](CCCCN)NC(=O)[C@H](CCC(N)=O)NC(=O)[C@H](CCC(N)=O)NC(=O)[C@H](CCCCN)NC(=O)[C@H](Cc1ccccc1)NC(=O)[C@H](CC(C)C)NC(=O)[C@@H](NC(=O)[C@H](CCC(N)=O)NC(=O)[C@H](CCCCNC(=O)COCCOCCNC(=O)COCCOCCNC(=O)CC[C@H](NC(=O)CCCCCCCCCCCCCCCCC(=O)O)C(=O)O)NC(=O)[C@@H](NC(=O)[C@H](CCCCN)NC(=O)[C@@H](NC(=O)[C@@H]1CCCN1C(=O)[C@@H](NC(=O)[C@H](CC(=O)O)NC(=O)[C@H](CC(C)C)NC(=O)[C@H](CO)NC(=O)[C@H](CC(C)C)NC(=O)[C@@H](NC(=O)[C@@H](N)Cc1ccccc1)[C@@H](C)O)C(C)C)[C@@H](C)O)[C@@H](C)CC)[C@@H](C)CC)C(N)=O
B6: peptide of SEQ ID NO: 8 (peptide)
peptide: FTLSLDVPTKIK([γGlu-Palmitoyl])QKLLKQEKQKKQRQKAKTAAQILAQV-NH2
modifications: N-terminus assumed
SMILES: CCCCCCCCCCCCCCCC(=O)N[C@@H](CCC(=O)NCCCC[C@H](NC(=O)[C@@H](NC(=O)[C@H](CCCCN)NC(=O)[C@@H](NC(=O)[C@@H]1CCCN1C(=O)[C@@H](NC(=O)[C@H](CC(=O)O)NC(=O)[C@H](CC(C)C)NC(=O)[C@H](CO)NC(=O)[C@H](CC(C)C)NC(=O)[C@@H](NC(=O)[C@@H](N)Cc1ccccc1)[C@@H](C)O)C(C)C)[C@@H](C)O)[C@@H](C)CC)C(=O)N[C@@H](CCC(N)=O)C(=O)N[C@@H](CCCCN)C(=O)N[C@@H](CC(C)C)C(=O)N[C@@H](CC(C)C)C(=O)N[C@@H](CCCCN)C(=O)N[C@@H](CCC(N)=O)C(=O)N[C@@H](CCC(=O)O)C(=O)N[C@@H](CCCCN)C(=O)N[C@@H](CCC(N)=O)C(=O)N[C@@H](CCCCN)C(=O)N[C@@H](CCCCN)C(=O)N[C@@H](CCC(N)=O)C(=O)N[C@@H](CCCNC(=N)N)C(=O)N[C@@H](CCC(N)=O)C(=O)N[C@@H](CCCCN)C(=O)N[C@@H](C)C(=O)N[C@@H](CCCCN)C(=O)N[C@H](C(=O)N[C@@H](C)C(=O)N[C@@H](C)C(=O)N[C@@H](CCC(N)=O)C(=O)N[C@H](C(=O)N[C@@H](CC(C)C)C(=O)N[C@@H](C)C(=O)N[C@@H](CCC(N)=O)C(=O)N[C@H](C(N)=O)C(C)C)[C@@H](C)CC)[C@@H](C)O)C(=O)O

What was measured:
rat CRF2R α receptor = rat CRF2R α receptor (rat, UniProt P47866 20-411); assay: cell-based or functional assay
Sequence of rat CRF2R α receptor (P47866 20-411): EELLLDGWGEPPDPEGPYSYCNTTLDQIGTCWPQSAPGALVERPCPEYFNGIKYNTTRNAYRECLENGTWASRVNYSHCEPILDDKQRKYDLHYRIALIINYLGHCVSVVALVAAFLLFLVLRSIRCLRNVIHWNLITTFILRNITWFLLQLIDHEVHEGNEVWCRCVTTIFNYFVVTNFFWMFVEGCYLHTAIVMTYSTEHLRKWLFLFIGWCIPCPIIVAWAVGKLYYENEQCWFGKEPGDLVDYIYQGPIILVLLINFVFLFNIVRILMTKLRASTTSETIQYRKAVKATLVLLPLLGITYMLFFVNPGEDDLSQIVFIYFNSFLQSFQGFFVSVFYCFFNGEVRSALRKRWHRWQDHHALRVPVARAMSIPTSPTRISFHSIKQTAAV

[1] = molecular target: T1, anti-target CRF1R receptor; assay: cell-based or functional assay

| EC50 [nM], 0% HSA (cAMP, A7R5 cells) (rat CRF2R α receptor) | EC50[nM] 0% HSA (cAMP, CRF1R-overexpression CHO cells) [1] | Emax (%) (cAMP, CRF1R-overexpression CHO cells) [1] | Binder |
| --- | --- | --- | --- |
| 0.01 nM | > 1000 nM | 12.7% | B1 |
| 0.42 nM |  |  | B2 |
| 0.04 nM |  |  | B3 |
| 0.12 nM |  |  | IVLSLD[dV]PTKLK([γGlu-Palmitoyl])QKLLKQERQRKERE[Aib]AEKNKRILERV-NH2 [peptide of SEQ ID NO: 225] |
| 0.61 nM |  |  | B4 |
| 2.5 nM | > 1000 nM | 4.3% | B5 |
| 0.11 nM | > 1000 nM | 16% | B6 |
